# According to patent US7419968B1, “Methods for treating therapy-resistant tumors” (Celmed Oncology (USA), Inc., priority 1999, dated 2008):
# Substrate: O=c1[nH]c(=O)n([C@H]2C[C@H](O)[C@@H](COP(=O)(O)O)O2)cc1/C=C/Br
# Assay: Enzyme kinetics of rHuTS with dUMP and BVdUMP
# Format: biochemical, human
# Settings: other: rHuTS; 37.0 °C
# Protocol: L. Enzyme Preparation. Cloned human thymidylate synthase plasmid pBCHTS was subcloned into E. coli. BL21 (DE3)/pET-28a(+) (Novagen) using the NdeI ñSacI insertion site, in order to add an amino terminal His tag. […] M. Enzyme Assays and Kinetic Measurements. […] Tetrahydrofolate stock solutions were prepared by dissolving tetrahydrofolic acid (Sigma) directly into 0.2 M Tris pH 7.5, 0.5 M-mercaptoethanol; stock solutions were stored at -80° C. […] N5, N10-methylene tetrahydrofolate was kept on ice and used within 2 hours of preparation. […] The catalytic efficiency of the enzyme (Kcat/Km) was calculated from the kinetic constants Km and Vmax.
protein,measurement,value
"recombinant human thymidylate synthase (rHuTS) (Homo sapiens) (protein, His tag (N); made in house; host or cells: E. coli BL21 (DE3), pET-28a(+)) MPVAGSELPRRPLPPAAQERDAEPRPPHGELQYLGQIQHILRCGVRKDDRTGTGTLSVFGMQARYSLRDEFPLLTTKRVFWKGVLEELLWFIKGSTNAKELSSKGVKIWDANGSRDFLDSLGFSTREEGDLGPVYGFQWRHFGAEYRDMESDYSGQGVDQLQRVIDTIKTNPDDRRIIMCAWNPRDLPLMALPPCHALCQFYVVNSELSCQLYQRSGDMGLGVPFNIASYALLTYMIAHITGLKPGDFIHTLGDAHIYLNHIEPLKIQLQREPRPFPKLRILRKVEKIDDFKAEDFQIEGYNPHPTIKMEMAV",Km,16 μM μM
